According to patent US12187807B2, “Antibody molecules to C5AR1 and uses thereof” (Visterra, Inc., priority 2020, dated 2025):
Where a chain is given by its changes, count along the chain named. Blank lines part the entries; values can stand above or below the molecule they belong to.

Legend:
[1] = target: T1, human C5aR1 transiently expressed on the surface of Expi293 cells (Homo sapiens, UniProt P21730, K279N); test: Cell surface binding (flow cytometry), Expi293 cells transiently expressing human C5aR1; conditions: staining with 100 nM of antibody
T1 construct: expressed in transfected cells; host or cells: Expi293 cells, transient
T1 sequence (P21730 with tags, fused parts or gaps K279N limits assumed): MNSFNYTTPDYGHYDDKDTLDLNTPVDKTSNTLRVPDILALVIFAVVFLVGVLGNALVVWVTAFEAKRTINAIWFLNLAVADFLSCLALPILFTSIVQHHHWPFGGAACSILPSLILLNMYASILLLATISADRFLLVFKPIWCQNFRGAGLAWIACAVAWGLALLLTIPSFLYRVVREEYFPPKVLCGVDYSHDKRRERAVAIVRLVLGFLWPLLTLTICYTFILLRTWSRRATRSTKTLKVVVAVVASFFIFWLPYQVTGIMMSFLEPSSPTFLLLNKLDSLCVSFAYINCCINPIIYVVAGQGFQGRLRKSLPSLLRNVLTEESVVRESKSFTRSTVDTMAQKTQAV
Description: (§1) Follow up screening to ensure specificity was performed by measuring cell surface binding to cells expressing, for example, human C5aR1, human C5aR2, mouse C5aR1, and control cells that were mock transfected. Briefly, cell surface binding was performed on various C5aR1 expressing cell lines (transiently expressed Expi293 cells, stable C5aR1-U937 cells, and neutrophils isolated from whole blood). Briefly, a titration of antibody diluted in flow buffer (1×PBS with 2% fetal bovine serum) was incubated with cells for 1 hour at 4° C. Cells were washed twice with flow buffer. Anti-human-APC secondary antibody was diluted 1:400 in flow buffer and incubated with cells for 30 minutes. Cells were washed twice with flow buffer and resuspended in 100 μL of flow buffer. Fluorescence was measured using the iQue Screen Plus flow cytometer.

[2] = system: control cells that were mock transfected; test: Cell surface binding (flow cytometry), mock transfected Expi293 control cells; conditions: staining with 100 nM of antibody
Description: as §1

[3] = target: T2, biotinylated peptide representing ECL2 of C5aR1 (Homo sapiens, UniProt P21730); test: Epitope mapping by biolayer interferometry, ECL2 peptide; format: binding; parameters: key: “+” indicates binding to the listed peptide; “−” indicates lack of binding to the listed peptide; conditions: biolayer interferometry, 10 μg/mL of antibody, biotinylated peptide on streptavidin biosensor
T2 construct: cyclic ECL2 peptide spanning from residues R175 to C188
Description: (§2) The epitope mapping was undertaken, using biolayer interferometry, on a series of exemplary anti-C5aR1 antibodies generated as described in Example 1. Briefly, for each antibody, biotinylated peptides representing ECL2, the N-terminus with tyrosine sulfation, and the N-terminus without tyrosine sulfation, were immobilized in a streptavidin biosensor. Subsequently, the biosensor was exposed to 10 μg/mL of antibody to detect antibody binding to the immobilized peptide. The results of the epitope mapping study are shown in Table 4 (“+” indicates binding to the listed peptide; “−” indicates lack of binding to the listed peptide).

[4] = target: T3, biotinylated peptide representing the N-terminus of C5aR1 with tyrosine sulfation (Homo sapiens, UniProt P21730); test: Epitope mapping by biolayer interferometry, N-terminus with tyrosine sulfation; format: binding; parameters: key: “+” indicates binding to the listed peptide; “−” indicates lack of binding to the listed peptide; conditions: 10 μg/mL of antibody, biotinylated peptide on streptavidin biosensor
T3 construct: the N-terminus with tyrosine sulfation
T3 sequence (P21730 1-37): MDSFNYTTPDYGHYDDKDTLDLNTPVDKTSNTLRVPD
Description: as §2

[5] = target: T4, biotinylated peptide representing the N-terminus of C5aR1 without tyrosine sulfation (Homo sapiens, UniProt P21730); test: Epitope mapping by biolayer interferometry, N-terminus without tyrosine sulfation; format: binding; parameters: key: “+” indicates binding to the listed peptide; “−” indicates lack of binding to the listed peptide; conditions: 10 μg/mL of antibody, biotinylated peptide on streptavidin biosensor
T4 construct: the N-terminus without tyrosine sulfation
T4 sequence (P21730 1-37 limits assumed): T3 sequence (P21730 1-37)
Description: as §2

C5aR1 (C5aR1-U937 cells) [6] = target: T5, C5aR1 (C5aR1-U937 cells) (Homo sapiens, UniProt P21730, K279N); test: C5a induced chemotaxis (transwell), C5aR1-U937 cells; format: cell-based; conditions: C5aR1-U937 cells; 1, 10, or 100 nM antibody; C5a 10^−6 to 10^−9.5 M
T5 construct: expressed in transfected cells
T5 sequence (P21730 with tags, fused parts or gaps K279N limits assumed): T1 sequence (P21730 with tags, fused parts or gaps K279N limits assumed)
Source text: (§3) One of the primary mechanisms by which neutrophils migrate to the site of inflammation is by chemotaxis induced by a C5a/C5adesArg gradient is detected by C5aR1 signaling. Anti-C5aR1 antibodies were thus assessed in a chemotaxis assay for their ability to block C5a induced migration of neutrophils. The assay involved cell migration in a double chamber well separated by filters. The cells and inhibitors were applied into the upper chamber and the lower chamber was filled with the chemoattractant, causing the cells to migrate to the lower chamber. The inhibition activity was evaluated by counting the migrated cell numbers. Specifically, a titration of C5a was added to the bottom chamber a 96 transwell plate. Cells expressing human C5aR1 (C5aR1-U937 cells or human neutrophils) were incubated with or without antagonist and then seeded into the top chamber of the transwell plate. The cells were incubated for 2 hours. Cells that migrated to the bottom chamber were quantified using the CyQUANT cell proliferation kit following the manufacturer's protocol. The assay was performed using engineered cells stably expressing C5aR1 as well as using human neutrophils.
as §3, with “Anti-C5aR1” for “One of the primary mechanisms by which neutrophils migrate to the site of inflammation is by chemotaxis induced by a C5a/C5adesArg gradient is detected by C5aR1 signaling. Anti-C5aR1”, “were” for “were thus”
In a first experiment, C5aR1-U937 cells were seeded into the top chamber of a 96 Transwell plate in the presence of no antibody (antagonist), or of 1, 10, or 100 nM antibody (antagonist).

C5aR1 (C5aR1-U937 cells) [7] = target: T5, C5aR1 (C5aR1-U937 cells); test: C5a induced calcium flux (Fluo-4), C5aR1-U937 cells; format: cell-based
Source text: (§4) Intracellular calcium is released into the cytoplasm by stimulation of GPCRs and acts as a second messenger of GPCR signaling, commonly used to quantify GPCR agonism and antagonism. As such, calcium flux assays using calcium sensitive dye were utilized to detect cytosolic changes in calcium concentration. […] The dye penetrated the cell membrane and became active once inside the cell. The active form of the dye became fluorescent after binding to intracellular calcium and the fluorescence was used to determine C5aR1 signaling in response to C5a addition. Specifically, stable C5aR1-U937 cells or neutrophils isolated from whole blood were stained with Fluo-4 Direct Calcium Assay kit from Thermo Fisher for 1 hour at 37° C. Next, antibody or antagonist was incubated with the cells for 30 minutes. The basal fluorescence with an excitation at 494 nm and emission at 516 nm was measured for 15 seconds. C5a was added to the cells and the fluorescence was measured over a span of four minutes. The basal read from before C5a stimulation and the max signal after C5a stimulation were used to calculate the response ratio. The potency of the antibodies was assessed for their ability to inhibit intracellular calcium release in C5aR1 expressing cells in the presence of C5a. Similar to the chemotaxis assay, the calcium flux assays were performed using engineered cells stably expressing C5aR1 as well as using human neutrophils.

[8] = target: T6, C5aR1 (human neutrophils) (Homo sapiens, UniProt P21730); test: C5a induced calcium flux (Fluo-4), human neutrophils; format: cell-based
T6 construct: neutrophils isolated from whole blood; host or cells: human neutrophils (cryopreserved, or isolated from whole blood)
T6 sequence (P21730 1-350): T1 sequence (P21730 with tags, fused parts or gaps K279N limits assumed) with N2D, N279K
Source text: as §4

C5aR1 = target: T7, C5aR1 (Homo sapiens, UniProt P21730); test: GeneBLAzer reporter assay (C5aR1 mediated Gα signaling); format: cell-based; parameters: host or cells: vendor's C5aR1 GeneBLAzer reporter cell line; conditions: 10 nM of antibody, 10 nM C5a
T7 sequence (P21730 1-350): T1 sequence (P21730 with tags, fused parts or gaps K279N limits assumed) with N2D, N279K
Description: In addition, a GeneBLAzer reporter assay was used, which mimics the calcium flux assay. The GeneBLAzer assay kit and C5aR1 cell line were commercially available from Thermo Fisher (Catalog #K1544). The assay was performed as recommend by the manufacturer. Briefly, antibodies or antagonists were incubated for 30 minutes at 37° C. C5a was then added to the cells and incubated at 37° C. for an additional 4-5 hours. Beta-lactamase substrate was then added and incubated for 2 hours at room temperature. Fluorescent measurements for each well with an excitation/emission of 409/460 (blue) and 409/530 (green) were measured. An increase in the blue to green ratio was proportional to C5aR1 activation and was used to calculate the percent of activation for the cells in each well.
Exemplary anti-C5aR1 antibodies generated as described in Example 1 were screened for antagonist activity against human C5aR1 using the GeneBLAzer assay, as described in Example 1. Briefly, cells were pre-incubated with 10 nM of antibody followed by addition of 10 nM C5a. The engineered induction of beta-lactamase expression by C5a-C5aR1 signaling was measured using the BLA substrate and calculating the ratio of blue and green fluorescence.

Binding to Cyclic ECL2 peptide [3]: + | Binding to Sulfated N-terminal peptide [4]: − | Binding to Non-sulfated N-terminal peptide [5]: −
B2: clone 336v2-1: exemplary anti-C5aR1 antibody, Table 1C (antibody, V domains shown)
VH: QVQLKQSGPGLVQSSQSLSITCTVSGFSLISYGVHWVRQSPGKGLEWLGVIWSGGSTDYNAAFKSRLSITKDNSKSQVFFKMNSLQADDTAIYYCAKNSQLGNAMDYWGQGTTVTVSS
VL: DIVMSQSPSSLAVSAGEKVTMSCKSSQSLLSSRTRKNYLAWYQQKPGQSPKLLIYWASTRESGVPDRFTGSGSGTDFTLTISSVQAEDLALYFCNQSYDLLTFGAGTKLEIK

antagonism of C5aR1 compared to reference antibodies or to Avacopan (C5aR1): comparable
B4: clone 322: anti-C5aR1 Site I antibody; VH SEQ ID NO: 491, VL SEQ ID NO: 551 (antibody, V domains shown)
VH: QVQLQQSDAALVKPGASVKISCKASGHTFTDHAIHWVKQRPEQGLEWIGYISPGNGDIKYNDKFKGKATLTADKSSSTAYMQLNSLTPEDSAVYFCKGPLFVRGQYYITMDYWGQGTTVTVSS
VL: DIVMTQSQKFMSTTVGDRVSITCKASQNVGAAVVWYQQKPGQSPKLLIYSASYRYSGVPDRFTGSGSGTDFTLTISNMQSEDLADYFCQQYNSFPLTFGGGTKLEIK

Continued, molecule first:

B1: Clone_336_v2-1 (antibody, V domains shown)
VH: B2 VH
VL: B2 VL
Cell surface binding, Human C5aR1, geometric mean fluorescent intensity [1]: 223,156 | Cell surface binding, Mock transfection, geometric mean fluorescent intensity [2]: 5,007 Clone_511v2

B3: clone 11v2: anti-C5aR1 Site II antibody; VH SEQ ID NO: 482, VL SEQ ID NO: 542 (antibody, V domains shown)
VH: QVQLQQSGPELVKPGASVKISCKASGYSFSSSWMNWVKQRPGKGLEWIGRISPGDGDTRYSGKFKGKATLTADKSSSTAYMQVTSLTSEDSAIYFCVRFLITSTRYVMDYWGQGTTVTVSS
VL: DVVMTQTPLSLPVSLGDQASISCRSSQSLVHSNGNTYLHWYLQKPGQSPKLLIYKVSNRFSGVPDRFSGSGSGTDFTLKISRVEAEDLGVYFCSQSTLVPPTFGGGTKLEIK
inhibition of cell chemotaxis (C5aR1 (C5aR1-U937 cells) [6]): strongest effects | inhibition of C5a induced intracellular calcium flux (C5aR1 (C5aR1-U937 cells) [7]): inhibition of the C5a induced calcium efflux | inhibition of C5a induced calcium efflux [8]: inhibition of the C5a induced calcium efflux | Binding to Cyclic ECL2 peptide [3]: + | Binding to Sulfated N-terminal peptide [4]: − | Binding to Non-sulfated N-terminal peptide [5]: − | antagonism of C5aR1 compared to reference antibodies or to Avacopan (C5aR1): improved

B5: Clone_317v2-1 (antibody, V domains shown)
VH: QVQLQQPGAELVMPGASVKLSCKASGYTFTSYWMHWVKQRPGQGLEWIGEIDPSDSYTNYNQKFKGKATLTVDKSSSTAYMQLSSLTSEDSAVYYCARVAYYSNFGGFAYWGQGTTVTVSS
VL: DIVMTQSPSSLSVSAGEKVTMSCKSSQSLLKSGNQKNYLAWHQQKPGQPPKLLIYGASTRESGVPDRFTGSGSGTDFTLTISSVQAEDLAVYYCQNDHSHPYTFGGGTKLEIK
Cell surface binding, Human C5aR1, geometric mean fluorescent intensity [1]: 8,106 | Cell surface binding, Mock transfection, geometric mean fluorescent intensity [2]: 4,535 Clone_507
